3 molecules from publication PMC4150777 (Nucleic Acids Research, 2014) can be followed below.

For orientation: Kd means a measure of binding affinity in units of concentration. A high value points to weaker binding. What is called stoichiometry N is the number of molecules, sites or subunits per partner or assembly.

Sequences and labels used below:
B2: Shewanella oneidensis MR-1 HipBso (SO0705) (natural protein, UniProt Q8EIX4 1-78, looked up)
chain: MASPLNQQSLGLLIKERRKSAALTQDVAAMLCGVTKKTLIRVEKGEDVYISTVFKILDGLGIDIVSAQTSDTETNGWY

The target in one data set is T1, HipBso (Shewanella oneidensis MR-1, UniProt PDB:4PU3_2 1-118).
T1 sequence: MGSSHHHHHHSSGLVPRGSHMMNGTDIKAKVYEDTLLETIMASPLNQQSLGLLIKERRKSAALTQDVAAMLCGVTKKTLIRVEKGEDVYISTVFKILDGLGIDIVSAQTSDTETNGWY
Briefly: ITC. For orientation: In ITC the heat of successive injections is recorded.

Data set [1] has as its target T2, HipAso D306Q active site mutant (non-phosphorylated) (Shewanella oneidensis MR-1, UniProt Q8EIX3 1-433, D306Q).
T2 sequence: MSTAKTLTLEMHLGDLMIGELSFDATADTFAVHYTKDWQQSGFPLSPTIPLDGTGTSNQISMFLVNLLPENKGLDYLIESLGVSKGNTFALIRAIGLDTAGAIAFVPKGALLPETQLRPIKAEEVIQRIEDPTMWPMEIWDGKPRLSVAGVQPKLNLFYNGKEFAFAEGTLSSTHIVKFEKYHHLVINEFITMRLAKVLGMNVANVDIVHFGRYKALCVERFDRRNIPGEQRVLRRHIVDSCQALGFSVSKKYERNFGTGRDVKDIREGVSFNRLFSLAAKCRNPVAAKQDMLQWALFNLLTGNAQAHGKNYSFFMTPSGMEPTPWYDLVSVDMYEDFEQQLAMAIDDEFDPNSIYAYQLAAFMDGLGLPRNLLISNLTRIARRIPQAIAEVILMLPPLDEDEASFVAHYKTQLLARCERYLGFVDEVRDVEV
Briefly: ITC.

The data set “SEC” concerns the molecule itself. Briefly: SEC. A general note: SEC sorts molecules by how far they enter the pores of the column.
Data set [2] addresses B2. The experiment in a line: ITC.

B1: hipBAso operator DNA (26 bp) (dsDNA)
DNA 1: ATTAGGTGTACTTATCTACACTTTTT
DNA 2: AAAAAGTGTAGATAAGTACACCTAAT
Regarding B1, in the data set with HipBso, the Kd came to 290 nM.

B2 displayed a Kd in data set [1] of 300 nM. The “stoichiometry N” value in the data set “SEC” is 2.

B3: Shewanella oneidensis MR-1 HipAso (SO0706), recombinant wild type (enzyme)
chain: MSTAKTLTLEMHLGDLMIGELSFDATADTFAVHYTKDWQQSGFPLSPTIPLDGTGTSNQISMFLVNLLPENKGLDYLIESLGVSKGNTFALIRAIGLDTAGAIAFVPKGALLPETQLRPIKAEEVIQRIEDPTMWPMEIWDGKPRLSVAGVQPKLNLFYNGKEFAFAEGTLSSTHIVKFEKYHHLVINEFITMRLAKVLGMNVANVDIVHFGRYKALCVERFDRRNIPGEQRVLRRHIVDSCQALGFSVSKKYERNFGTGRDVKDIREGVSFNRLFSLAAKCRNPVAAKQDMLQWALFNLLTGNADAHGKNYSFFMTPSGMEPTPWYDLVSVDMYEDFEQQLAMAIDDEFDPNSIYAYQLAAFMDGLGLPRNLLISNLTRIARRIPQAIAEVILMLPPLDEDEASFVAHYKTQLLARCERYLGFVDEVRDVEV
Regarding B3, the “stoichiometry N” value in data set [2] worked out at 2 HipAso per HipBso dimer.
